The values below come from CN106554420A (SHANGHAI UNION BIOPHARM CO LTD; LI JUN, dated 2017).

Usually EC50 stands for the concentration needed to bring the measured effect to its halfway point. A higher EC50 goes with weaker potency. As usually defined, the Kd is the concentration at which binding is half-saturated. The low end stands for higher affinity, the high end for lower affinity.

Assay [1] has as its target T1, huPCSK9-His，重组人PCSK9胞外区His融合蛋白 (human, UniProt Q8NBP7 31-692, biotin-labelled in the ELISA and in the LDL-R blocking assay (sites not given)).
T1 construct: Bought (Novoprotein CA83); The printed entry already includes the His tag; also called 人PCSK9-His; 人源PCSK9
As to the kind of experiment: ELISA, biotin-labelled PCSK9-His captured on neutravidin-coated plate. Background: In an ELISA, binding on a coated surface is turned into a signal by an enzyme label.

Assay [2] concerns the target T2, cyPCSK9，猕猴PCSK9胞外区His融合蛋白 (猕猴 (macaque), UniProt A8T662 31-692, biotin-labelled in the ELISA (sites not given)).
T2 construct: Bought (Novoprotein CA87); The printed entry includes the His tag
The description is as above.

Assay [3] deals with T1, huPCSK9-His，重组人PCSK9胞外区His融合蛋白. As to the kind of experiment: cell-based or functional assay.
For assay [4] the target is unchanged. In words: BLI (ForteBio), chF3-9 captured on anti-human Fc (AHC) sensor, PCSK9 in solution, 1:1 global fit. For orientation: Biolayer interferometry detects binding as a change in optical thickness at a sensor tip.
The target of assay [5] is T2, cyPCSK9，猕猴PCSK9胞外区His融合蛋白. The assay is described as above.

T1 sequence (Q8NBP7 other isoform, or with tags, fused parts or gaps limits assumed): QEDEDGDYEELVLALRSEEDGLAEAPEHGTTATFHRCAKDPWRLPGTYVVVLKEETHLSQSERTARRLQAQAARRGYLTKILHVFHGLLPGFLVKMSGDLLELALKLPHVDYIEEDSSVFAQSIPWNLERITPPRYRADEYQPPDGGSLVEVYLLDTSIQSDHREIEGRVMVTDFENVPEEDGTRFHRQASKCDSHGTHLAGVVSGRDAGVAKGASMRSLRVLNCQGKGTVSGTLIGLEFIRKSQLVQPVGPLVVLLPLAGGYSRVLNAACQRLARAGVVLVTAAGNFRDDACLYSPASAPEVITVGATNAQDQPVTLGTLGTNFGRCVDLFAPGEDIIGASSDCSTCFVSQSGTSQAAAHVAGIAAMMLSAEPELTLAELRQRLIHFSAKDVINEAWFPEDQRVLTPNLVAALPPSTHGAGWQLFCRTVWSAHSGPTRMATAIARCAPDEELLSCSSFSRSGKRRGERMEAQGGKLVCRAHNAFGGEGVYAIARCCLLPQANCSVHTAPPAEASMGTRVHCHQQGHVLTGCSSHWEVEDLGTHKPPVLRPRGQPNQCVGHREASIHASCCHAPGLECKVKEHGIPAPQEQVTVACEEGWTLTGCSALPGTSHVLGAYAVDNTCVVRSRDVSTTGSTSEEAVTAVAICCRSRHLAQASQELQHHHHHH
T2 sequence (A8T662 other isoform, or with tags, fused parts or gaps limits assumed, form in doubt): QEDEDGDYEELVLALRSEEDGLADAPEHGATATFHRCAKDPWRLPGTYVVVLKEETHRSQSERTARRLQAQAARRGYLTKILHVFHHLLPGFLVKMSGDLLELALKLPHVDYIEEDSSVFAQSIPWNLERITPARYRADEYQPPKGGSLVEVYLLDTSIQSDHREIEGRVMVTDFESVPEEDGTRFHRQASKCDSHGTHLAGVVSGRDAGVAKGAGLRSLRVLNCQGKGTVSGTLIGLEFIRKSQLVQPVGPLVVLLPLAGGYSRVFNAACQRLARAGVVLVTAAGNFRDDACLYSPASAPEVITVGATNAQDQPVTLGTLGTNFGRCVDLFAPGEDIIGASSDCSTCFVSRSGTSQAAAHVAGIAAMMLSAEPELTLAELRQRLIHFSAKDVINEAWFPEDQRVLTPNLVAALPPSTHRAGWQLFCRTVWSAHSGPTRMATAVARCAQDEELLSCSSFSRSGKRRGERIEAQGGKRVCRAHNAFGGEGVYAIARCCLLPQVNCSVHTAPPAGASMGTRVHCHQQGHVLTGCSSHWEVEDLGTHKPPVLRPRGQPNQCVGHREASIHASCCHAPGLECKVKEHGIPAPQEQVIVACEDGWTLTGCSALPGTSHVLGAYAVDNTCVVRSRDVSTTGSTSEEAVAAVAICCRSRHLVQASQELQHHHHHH

B1: 鼠单抗mF3-9 (antibody, V domains shown)
VH: QVQLQQSGAELVRPGSSVKISCKASGYSFSSYWMNWVKQRPGQGLEWIGQIYPGDGDTNFNGKFKGKATLTADKSSSTAYMQLSSLTSEDSAVYFCGNYDYDGEIPYWGQGTTLTVSS
VL: DIFLTQSPAILSVSPGERVNFSCRASQTIGTSLHWYQQRTNGSPRLLIKYASESISGIPSRFSGSGSGTEFTLRINSVESEDIADYYCQQSSKWPLTFGQGTKVEIK
notes: Mouse hybridoma monoclonal antibody; also called 鼠单抗F3-9; 抗体F3-9
With B1, the EC50 in assay [1] was 0.68 nM; in assay [2], 0.62 nM. For the same molecule, the “有效活性浓度(EC50), antagonism of PCSK9 inhibition of LDL uptake by HepG2 cells” value in assay [3] turned out to be 10 nM.

B2: 人-鼠嵌合型F3-9抗体(chF3-9) (antibody, IgG2, V domains shown)
VH: QVQLQQSGAELVRPGSSVKISCKASGYSFSSYWMNWVKQRPGQGLEWIGQIYPGDGDTNFNGKFKGKATLTADKSSSTAYMQLSSLTSEDSAVYFCGNYDYDGEIPYWGQGTTLTVSS
VL: DIFLTQSPAILSVSPGERVNFSCRASQTIGTSLHWYQQRTNGSPRLLIKYASESISGIPSRFSGSGSGTEFTLRINSVESEDIADYYCQQSSKWPLTFGQGTKVEIK
notes: also called F3-9嵌合抗体; 嵌合PCSK9抗体F3-9
With B2, the Kd stood at 0.42 nM in assay [4] and 1.27 nM in assay [5].
